What all share (assay): cryo-EM structure
The target in assay [1] is Host-recognition protein P5 of bacteriophage PR772 (bacteriophage PR772).
In assay [2] the target is Capsid associated protein P30 of bacteriophage PR772 (bacteriophage PR772).
In assay [3] the target is Major capsid protein P3 of bacteriophage PR772 (bacteriophage PR772).

The results in this text go back to article doi:10.1101/645523.

The term stoichiometry N denotes a count of units in the complex or per binding partner.

Regarding “Host-recognition protein P5 of bacteriophage PR772 (natural protein)”, the stoichiometry N in assay [1] came to 3. “Capsid associated protein P30 of bacteriophage PR772 (natural protein)”: the stoichiometry N in assay [2] amounted to 2.

For “Major capsid protein P3 of bacteriophage PR772 (natural protein)”, the stoichiometry N in assay [3] worked out at 3.
